Assay results taken from PMC10786891, “Massively parallel profiling of RNA-targeting CRISPR-Cas13d”.
Changes are numbered by the printed parent chain. Numbers in names are those of the source.

T1: EsCas13d, nuclease-dead (Eubacterium siraeum, UniProt B0MS50, R295A;H300A;R849A;H854A)
T1 sequence: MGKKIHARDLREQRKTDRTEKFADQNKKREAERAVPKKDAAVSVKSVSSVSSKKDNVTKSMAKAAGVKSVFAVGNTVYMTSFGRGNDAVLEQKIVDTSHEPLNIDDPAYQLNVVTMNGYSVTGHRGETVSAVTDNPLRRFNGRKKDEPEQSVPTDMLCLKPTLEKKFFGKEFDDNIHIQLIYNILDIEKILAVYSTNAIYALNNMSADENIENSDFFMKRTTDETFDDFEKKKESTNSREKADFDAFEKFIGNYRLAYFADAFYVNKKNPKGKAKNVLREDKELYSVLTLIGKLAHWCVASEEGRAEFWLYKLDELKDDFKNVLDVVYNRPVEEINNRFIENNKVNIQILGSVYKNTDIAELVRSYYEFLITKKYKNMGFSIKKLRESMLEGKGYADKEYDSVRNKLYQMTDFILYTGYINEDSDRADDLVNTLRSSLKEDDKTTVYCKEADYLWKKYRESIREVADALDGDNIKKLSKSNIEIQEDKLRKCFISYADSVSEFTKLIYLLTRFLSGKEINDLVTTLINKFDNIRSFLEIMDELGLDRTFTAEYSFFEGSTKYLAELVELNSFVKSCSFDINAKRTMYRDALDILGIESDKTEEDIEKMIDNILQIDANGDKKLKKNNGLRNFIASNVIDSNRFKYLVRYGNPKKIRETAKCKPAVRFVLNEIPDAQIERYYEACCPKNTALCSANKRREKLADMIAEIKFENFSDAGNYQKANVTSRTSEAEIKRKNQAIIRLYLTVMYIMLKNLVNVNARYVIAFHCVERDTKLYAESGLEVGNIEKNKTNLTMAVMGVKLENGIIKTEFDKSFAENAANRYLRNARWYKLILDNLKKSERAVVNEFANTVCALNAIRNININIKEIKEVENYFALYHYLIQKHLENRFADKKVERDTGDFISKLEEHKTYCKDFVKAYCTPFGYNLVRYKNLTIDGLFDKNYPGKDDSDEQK

B1: target 2 MT 5'PFS UCU 3'PFS AGA (mixed)
RNA 1: CACCCGUGCAAAAUUGCAGGGGUCUAAAACCUUCUCCAAAUUGUUUCAUCCU
RNA 2: GGGAAUGGAUCCACAUCUACGAAUUCUCUAGGAUGAAACAAUUUGGAGAAGAGAAGAUCGGAAGAGCACACGU
B2: target 2 MT 5'PFS UCG 3'PFS AGG (mixed)
RNA 1: B1 RNA 1
RNA 2: B1 RNA 2 with U29G, A54G
B3: target 2 MT 5'PFS UCG 3'PFS AGA (mixed)
RNA 1: B1 RNA 1
RNA 2: B1 RNA 2 with U29G
B4: target 2 MT 5'PFS GGA 3'PFS CUA (mixed)
RNA 1: B1 RNA 1
RNA 2: B1 RNA 2 with U27G, C28G, U29A, A52C, G53U
B5: target 2 MT 5'PFS UGA 3'PFS UCG (mixed)
RNA 1: B1 RNA 1
RNA 2: B1 RNA 2 with C28G, U29A, A52U, G53C, A54G
B6: target 2 MT 5'PFS GGU 3'PFS UCC (mixed)
RNA 1: B1 RNA 1
RNA 2: B1 RNA 2 with U27G, C28G, A52U, G53C, A54C
B7: target 2 MT 5'PFS GCC 3'PFS CGG (mixed)
RNA 1: B1 RNA 1
RNA 2: B1 RNA 2 with U27G, U29C, A52C, A54G
B8: target 2 MT 5'PFS AAC 3'PFS AUC (mixed)
RNA 1: B1 RNA 1
RNA 2: B1 RNA 2 with U27A, C28A, U29C, G53U, A54C
B9: target 2 MT 5'PFS GCC 3'PFS AGC (mixed)
RNA 1: B1 RNA 1
RNA 2: B1 RNA 2 with U27G, U29C, A54C
B10: target 2 MT 5'PFS GCC 3'PFS AGA (mixed)
RNA 1: B1 RNA 1
RNA 2: B1 RNA 2 with U27G, U29C
B11: target 2 MT 5'PFS CGC 3'PFS CAA (mixed)
RNA 1: B1 RNA 1
RNA 2: B1 RNA 2 with U27C, C28G, U29C, A52C, G53A
B12: target 2 MT 5'PFS GGA 3'PFS CUC (mixed)
RNA 1: B1 RNA 1
RNA 2: B1 RNA 2 with U27G, C28G, U29A, A52C, G53U, A54C
B13: target 2 MT 5'PFS AAC 3'PFS AUA (mixed)
RNA 1: B1 RNA 1
RNA 2: B1 RNA 2 with U27A, C28A, U29C, G53U
B14: target 2 MT 5'PFS GUA 3'PFS AAC (mixed)
RNA 1: B1 RNA 1
RNA 2: B1 RNA 2 with U27G, C28U, U29A, G53A, A54C
B15: target 2 MT 5'PFS CGC 3'PFS CAG (mixed)
RNA 1: B1 RNA 1
RNA 2: B1 RNA 2 with U27C, C28G, U29C, A52C, G53A, A54G
B16: target 2 MT 5'PFS GAU 3'PFS CAU (mixed)
RNA 1: B1 RNA 1
RNA 2: B1 RNA 2 with U27G, C28A, A52C, G53A, A54U
B17: target 2 MT 5'PFS AAC 3'PFS AUU (mixed)
RNA 1: B1 RNA 1
RNA 2: B1 RNA 2 with U27A, C28A, U29C, G53U, A54U
B18: target 2 MT 5'PFS GGU 3'PFS UCU (mixed)
RNA 1: B1 RNA 1
RNA 2: B1 RNA 2 with U27G, C28G, A52U, G53C, A54U
B19: target 2 MT 5'PFS GGA 3'PFS CUU (mixed)
RNA 1: B1 RNA 1
RNA 2: B1 RNA 2 with U27G, C28G, U29A, A52C, G53U, A54U
B20: target 2 MT 5'PFS GGU 3'PFS UCG (mixed)
RNA 1: B1 RNA 1
RNA 2: B1 RNA 2 with U27G, C28G, A52U, G53C, A54G
B21: target 2 MT 5'PFS UGA 3'PFS UCC (mixed)
RNA 1: B1 RNA 1
RNA 2: B1 RNA 2 with C28G, U29A, A52U, G53C, A54C
B22: target 2 MT 5'PFS AAC 3'PFS UUG (mixed)
RNA 1: B1 RNA 1
RNA 2: B1 RNA 2 with U27A, C28A, U29C, A52U, G53U, A54G
B23: target 2 MT 5'PFS UGA 3'PFS UCA (mixed)
RNA 1: B1 RNA 1
RNA 2: B1 RNA 2 with C28G, U29A, A52U, G53C
B24: target 2 MT 5'PFS CCC 3'PFS CCU (mixed)
RNA 1: B1 RNA 1
RNA 2: B1 RNA 2 with U27C, U29C, A52C, G53C, A54U
B25: target 2 MT 5'PFS GGA 3'PFS CUG (mixed)
RNA 1: B1 RNA 1
RNA 2: B1 RNA 2 with U27G, C28G, U29A, A52C, G53U, A54G
B26: target 2 MT 5'PFS CGC 3'PFS CAC (mixed)
RNA 1: B1 RNA 1
RNA 2: B1 RNA 2 with U27C, C28G, U29C, A52C, G53A, A54C
B27: target 2 MT 5'PFS CGC 3'PFS CAU (mixed)
RNA 1: B1 RNA 1
RNA 2: B1 RNA 2 with U27C, C28G, U29C, A52C, G53A, A54U
B28: target 2 MT 5'PFS GCC 3'PFS AGG (mixed)
RNA 1: B1 RNA 1
RNA 2: B1 RNA 2 with U27G, U29C, A54G
B29: target 2 MT 5'PFS GAU 3'PFS CAC (mixed)
RNA 1: B1 RNA 1
RNA 2: B1 RNA 2 with U27G, C28A, A52C, G53A, A54C
B30: target 2 MT 5'PFS GCC 3'PFS CGA (mixed)
RNA 1: B1 RNA 1
RNA 2: B1 RNA 2 with U27G, U29C, A52C
B31: target 2 MT 5'PFS GCC 3'PFS CGC (mixed)
RNA 1: B1 RNA 1
RNA 2: B1 RNA 2 with U27G, U29C, A52C, A54C
B32: target 2 MT 5'PFS GAU 3'PFS CAG (mixed)
RNA 1: B1 RNA 1
RNA 2: B1 RNA 2 with U27G, C28A, A52C, G53A, A54G
B33: target 2 MT 5'PFS CAG 3'PFS CUG (mixed)
RNA 1: B1 RNA 1
RNA 2: B1 RNA 2 with U27C, C28A, U29G, A52C, G53U, A54G
B34: target 2 MT 5'PFS GAU 3'PFS CAA (mixed)
RNA 1: B1 RNA 1
RNA 2: B1 RNA 2 with U27G, C28A, A52C, G53A
B35: target 1 A1G,G13A (mixed)
RNA 1: CACCCGUGCAAAAAUGCAGGGGUCUAAAACUGAGCGGAUAACCUCUCUAUGG
RNA 2: GGGAAUGGAUCCACAUCUACGAAUUCGUACCAUAGAGAAGUUAUCCGCUCGCCGAGAUCGGAAGAGCACACGU
B36: target 1 G13A (mixed)
RNA 1: B35 RNA 1
RNA 2: B35 RNA 2 with G51A
B37: target 1 A18U,C22A (mixed)
RNA 1: B35 RNA 1
RNA 2: B35 RNA 2 with C30A, A34U, A39G, G51A
B38: target 1 A1C,G13A (mixed)
RNA 1: B35 RNA 1
RNA 2: B35 RNA 2 with G51C

These binders were tested against T1, EsCas13d, nuclease-dead (assay: crRNA (strand 1, pre-loaded); Mg2+; 40 mM Tris-HCl pH 7.5, 150 mM NaCl, 6 mM MgCl2, 1 mM DTT, 0.1% Tween-20, 0.2 mg/ml BSA; 25 C; 10 min per concentration, then washed). Conditions: tags: His6-TwinStrep-SUMO cleaved; N-terminal SNAP kept (SNAP-Surface 488); label: 3' end held by stalled T7 RNA polymerase.
Work on B1 yielded a Kd of 40 ± 18 nM. With B2 the Kd was 35 ± 9 nM. B3 was tested, and the Kd was 17.9 ± 2.3 nM. Binder B4 has a Kd of 9.9 ± 1.3 nM. With B5 the Kd was 13 ± 1.7 nM. Binder B6 has a Kd of 76 ± 19 nM. With B7 the Kd was 13.5 ± 2.2 nM. Binder B8 has a Kd of 3.8 ± 0.9 nM. Work on B9 yielded a Kd of 10.5 ± 1.2 nM. B10 gave a Kd of 10.5 ± 1.8 nM. In the case of B11, the Kd is reported as 7.4 ± 2.5 nM. For B12, the Kd was 13.4 ± 1.5 nM. Work on B13 yielded a Kd of 6.1 ± 1.4 nM. In the case of B14, the Kd is reported as 6.2 ± 0.5 nM. With B15 the Kd was 3.6 ± 0.6 nM. With B16 the Kd was 9 ± 1.4 nM. In the case of B17, the Kd is reported as 6.1 ± 1.8 nM. B18 showed a Kd of 38 ± 7 nM. B19 was tested, and the Kd was 10.5 ± 0.8 nM. With B20 the Kd was 29 ± 4 nM. B21 was tested, and the Kd was ~49 nM. B22 gave a Kd of 8.5 ± 1.3 nM. Work on B23 yielded a Kd of 14 ± 6 nM. B24 was tested, and the Kd was 7.6 ± 1.8 nM. B25 gave a Kd of 9.2 ± 0.8 nM. For B26, the Kd was 5.1 ± 0.5 nM. With B27 the Kd was 4.5 ± 0.7 nM. Work on B28 yielded a Kd of 16.4 ± 2.4 nM. B29 showed a Kd of 11.3 ± 2.4 nM. Binder B30 has a Kd of 14 ± 3.3 nM. Work on B31 yielded a Kd of 11.4 ± 1.6 nM. B32 gave a Kd of 8.7 ± 0.6 nM. B33 gave a Kd of 7.2 ± 1.3 nM. With B34 the Kd was 14 ± 5 nM. For B35, the Kd was 6.2 ± 0.8 nM. With B36 the Kd was 4.9 ± 0.4 nM. For B37, the Kd was 58 ± 6 nM. Work on B38 yielded a Kd of 14.8 ± 2.5 nM.
